# Values of other authors, collected in paper PMC13042399.
# Target: IGF2 (Homo sapiens) (UniProt P01344)
# Sequence (P01344 25-91): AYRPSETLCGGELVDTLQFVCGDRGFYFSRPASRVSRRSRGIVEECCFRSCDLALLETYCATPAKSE
substance,measurement,value
IGF2R (from UniProt P11717),Kd,40 nM
